This note sets out measurements from patent US20220175920A1 (INSERM INSTITUT NATIONAL DE LA SANTE ET DE LA RECHERCHE …, published 2022).

Test [1] deals with T1, cohesin-human CD40 ectodomain protein (P3398) (human).
T1 construct: SPR analyte; also called soluble human CD40 ectodomain; liquid phase soluble human CD40 ectodomain; not shown: cohesin domain of P3398 and its junction to CD40
The experiment in a line: SPR (SensiQ Pioneer), hIgG4 mAb captured on Protein A/G, cohesin-human CD40 ectodomain in solution.

Test [2] concerns the target T2, human CD40 ectodomain mouse Fc fusion protein (human, UniProt P25942 21-193).
T2 construct: a human Fc version was used with the mouse mAbs; also called soluble CD40
The experiment in a line: competition, flow cytometry: mAb pre-incubated with CD40 ectodomain-Fc, then CD40L-transfected L cells.

Test [3] concerns the target T3, human CD40 on cells (B cells, MDDCs, stably transfected CHO cells) (human, UniProt P25942 21-277). The experiment in a line: cell-based or functional assay.
Test [4] concerns the target CD40 R27A FAS (mutated CD40 ectodomain fused to FAS) on CHO cells (human). The experiment in a line: flow cytometry, stably transfected CHO cells, 1 h on ice, goat anti-human IgG-PE, % of events in gate P1 [panel CD40 R27A FAS CHO].
For test [5], the target named is CD40 E28A FAS (mutated CD40 ectodomain fused to FAS) on CHO cells (human). The experiment in a line: flow cytometry, stably transfected CHO cells, 1 h on ice, goat anti-human IgG-PE, % of events in gate P1 [panel CD40 E28A FAS CHO]. (In general: Flow cytometry measures light scatter and fluorescence of single cells or particles in a stream.)
Chain of CD40 E28A FAS (mutated CD40 ectodomain fused to FAS) on CHO cells (human) (chain, as listed by the source E28A E28A): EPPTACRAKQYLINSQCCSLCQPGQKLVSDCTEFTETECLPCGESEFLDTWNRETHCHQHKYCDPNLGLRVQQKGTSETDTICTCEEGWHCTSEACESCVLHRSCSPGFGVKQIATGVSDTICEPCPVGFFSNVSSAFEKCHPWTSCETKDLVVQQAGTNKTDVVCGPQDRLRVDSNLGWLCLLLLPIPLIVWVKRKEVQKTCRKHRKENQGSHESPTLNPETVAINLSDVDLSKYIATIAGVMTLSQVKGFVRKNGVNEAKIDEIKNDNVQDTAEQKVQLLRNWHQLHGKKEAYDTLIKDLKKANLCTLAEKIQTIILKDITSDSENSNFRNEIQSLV
Test [6] addresses T3, human CD40 on cells (B cells, MDDCs, …). The experiment in a line: cell-based or functional assay. This is another data set of the same source.
The target is the same in test [7]. The experiment in a line: flow cytometry, stably transfected CHO cells, 1 h on ice, goat anti-human IgG-PE, % of events in gate P1 [panel CD40 CHO].
Test [8] addresses T4, human CD40 ectodomain fused to FAS transmembrane and intracellular domains, on CHO cells (human).
T4 construct: also called CD40-FAS; WT CD40-FAS CHO
The experiment in a line: flow cytometry, stably transfected CHO cells, 1 h on ice, goat anti-human IgG-PE, % of events in gate P1 [panel WT CD40-FAS CHO].

Test [9] addresses T2, human CD40 ectodomain mouse Fc fusion …. The experiment in a line: competition flow cytometry: human IgG4 mAb titrated into 2 ug/ml human CD40 ectodomain-mouse Fc, 1 h on ice, then added to human CD40L-transfected L cells; cell-bound CD40-Fc detected with anti-IgG-PE; blocked ligand: CD40L on L cells [right panel].
The target of test [10] is T1, cohesin-human CD40 ectodomain protein …. The experiment in a line: SPR. In general terms: In SPR one partner is held on a chip, and binding of the other changes the refractive index at the surface.
Test [11] addresses T4, human CD40 ectodomain fused to FAS …. The experiment in a line: cell-based or functional assay.

One may read the Kd as a measure of binding affinity in units of concentration. The koff is the rate constant with which the complex falls apart. Higher therefore signals a short-lived complex. The kon is a measure of how fast the partners come together. Lower therefore signals slow association. A word on the EC50 (read off the curve): it is the concentration needed to bring the measured effect to its halfway point.

T2 sequence (P25942 21-193): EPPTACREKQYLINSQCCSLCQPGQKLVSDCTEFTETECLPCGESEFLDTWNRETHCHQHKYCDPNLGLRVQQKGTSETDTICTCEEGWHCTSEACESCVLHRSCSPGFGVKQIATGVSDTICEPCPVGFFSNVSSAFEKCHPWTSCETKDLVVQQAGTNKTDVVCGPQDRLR
T1 sequence (chain, as listed by the source limits assumed): as the sequence (P25942 21-193) above
T4 sequence (chain, as listed by the source limits assumed): as the sequence (chain, as listed by the source E28A E28A) above, with A8E counted along it
Chain of CD40 R27A FAS (mutated CD40 ectodomain fused to FAS) on CHO cells (human) (chain, as listed by the source R27A R27A): as the sequence (chain, as listed by the source E28A E28A) above, with R7A, A8E counted along it
T3 sequence (P25942 21-277): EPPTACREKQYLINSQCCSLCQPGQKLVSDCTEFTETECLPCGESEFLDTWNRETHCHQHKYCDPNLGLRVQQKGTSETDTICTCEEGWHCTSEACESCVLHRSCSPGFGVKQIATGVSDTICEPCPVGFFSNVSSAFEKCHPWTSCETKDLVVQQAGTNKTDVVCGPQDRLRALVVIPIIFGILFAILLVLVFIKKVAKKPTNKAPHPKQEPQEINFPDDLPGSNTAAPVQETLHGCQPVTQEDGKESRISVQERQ

B1: CP-870,893 formatted as human IgG4 (antibody, V domains shown)
VH: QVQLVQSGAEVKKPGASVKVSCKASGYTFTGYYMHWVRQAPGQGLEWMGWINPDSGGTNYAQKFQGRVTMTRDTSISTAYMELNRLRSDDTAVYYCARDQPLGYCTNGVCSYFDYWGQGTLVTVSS
VL: DIQMTQSPSSVSASVGDRVTITCRASQGIYSWLAWYQQKPGKAPNLLIYTASTLQSGVPSRFSGSGSGTDFTLTISSLQPEDFATYYCQQANIFPLTFGGGTK
notes: also called mAb5 [CP870893]; anti-CD40 CP
Regarding B1, in test [1], the Kd amounted to 71 nM, the koff was 0.0022 s⁻¹ and the on-rate (kon) amounted to 46000 M⁻¹ s⁻¹. Besides, the “fold higher antibody level required to partially block CD40 binding to CD40L, against the stoichiometric amounts of 12B4 and 12E12” value in test [2] is over 20 fold. Further, in test [3], the “EC50/EC50 CP, B cell proliferation” value is 1 ratio and the “Δ w/sCD40L (fold): fold difference in B cell proliferation EC50 with constant 6 nM soluble human CD40L” value (“Δ w/sCD40L (fold): fold difference” for short) was about 0 fold. In test [4], the binding result was “no binding”. The “EC50 (read off the curve)” value in test [5] is about 0.01 nM. Besides, in test [6], the “EC50 (nM) cytokines: 50% of maximum cytokine secretion by MDDCs” value is about 0.1 nM; the “EC50/EC50 CP, MDDC cytokine secretion” value turned out to be 1 ratio; the “EC50 w/sCD40L (nM): MDDC cytokine secretion with constant suboptimal soluble human CD40L” value is at least 0.01 nM; the “Δ w/sCD40L (fold): MDDC cytokine secretion EC50” value is about 100 fold. Moreover, the “EC50 (read off the curve)” value in test [7] is about 0.003 nM. For the same molecule, the “EC50 (read off the curve)” value in test [8] was about 0.004 nM.

B2: anti-CD40 12B4 human IgG4 antibody (antibody, V domains shown)
VH: EVQLQQSGPELVKPGASVKMSCKASGYTFTDYVLHWVKQKPGQGLEWIGYINPYNDGTKYNEKFKGKATLTSDKSSSTAYMELSSLTSEDSAVYYCARGYPAYSGYAMDYWGQGTSVTVSS
VL: DIQMTQTTSSLSASLGDRVTISCRASQDISNYLNWYQQKPDGTVKLLIYYTSRLHSGVPSRFSGSGSGTDYSLTISNLEQEDIATYFCHHGNTLPWTFGGGTK
notes: also called mAb3 [12B4]
In test [1], B2 yielded a Kd of 100 nM, an off-rate constant (koff) of 0.027 s⁻¹ and a kon of 250000 M⁻¹ s⁻¹. For the same molecule, in [3], the “EC50/EC50 CP, B cell proliferation” value is about 10 ratio and the “Δ w/sCD40L (fold): fold difference” value was about 0 fold. Besides, the “IC50 (read off the curve)” value in test [9] was about 0.2 µg/mL. Further, in test [6], the “EC50 (nM) cytokines: 50% of maximum cytokine secretion by MDDCs” value is over 10 nM; the “EC50/EC50 CP, MDDC cytokine secretion” value is at least 100 ratio; the “Δ w/sCD40L (fold): MDDC cytokine secretion EC50” value was about 0 fold.

B3: anti-CD40 24A3 human IgG4 antibody (antibody, V domains shown)
VH: DVQLQESGPDLVKPSQSLSLTCTVTGYSITSDYSWHWIRQFPGNKLEWMGYIYYSGSTNYNPSLKSRISITRDTSKNQFFLQLNSVTTEDSATYFCARFYYGYSFFDYWGQGTTLTVSS
VL: QIVLTQSPAFMSASPGEKVTMTCSASSSVSYMHWYQQKSGTSPKRWIYDTSKLASGVPARFSGSGSGTSYSLTISSMEAEDAATYYCQQWSSNPLTFGAGTK
notes: also called mAb4 [24A3]
Regarding B3, in [1], the Kd is 97 nM, the koff turned out to be 0.008 s⁻¹ and the kon is 83000 M⁻¹ s⁻¹. Further, in [3], the “EC50 (nM) B cell: dose for 50% of maximum B cell proliferation” value is over 10 nM; the “EC50/EC50 CP, B cell proliferation” value was at least 1000 ratio; the “Δ w/sCD40L (fold): fold difference” value was about 100 fold. Also, in test [6], the “EC50 (nM) cytokines: 50% of maximum cytokine secretion by MDDCs” value was over 10 nM; the “EC50/EC50 CP, MDDC cytokine secretion” value was over 1000 ratio; the “EC50 w/sCD40L (nM): MDDC cytokine secretion with constant suboptimal soluble human CD40L” value was at least 10 nM; the “Δ w/sCD40L (fold): MDDC cytokine secretion EC50” value is over 1000 fold.

B4: anti-CD40 12E12 human IgG4 antibody (antibody, V domains shown)
VH: EVQLVESGGGLVQPGGSLKLSCATSGFTFSDYYMYWVRQAPGKGLEWVAYINSGGGSTYYPDTVKGRFTISRDNAKNTLYLQMNSLRAEDTAVYYCARRGLPFHAMDYWGQGTLVTVSS
VL: DIQMTQSPSSLSASVGDRVTITCSASQGISNYLNWYQQKPGKAVKLLIYYTSILHSGVPSRFSGSGSGTDYTLTISSLQPEDFATYYCQQFNKLPPTFGGGTK
notes: also called mAb6 [12E12]; anti-CD40 12E12 IgG4
Consider B4, for which the Kd in [10] turned out to be 28 nM. In [1], binding was put at a Kd of 33 nM, the koff came to 0.0046 s⁻¹ and the kon was found to be 150000 M⁻¹ s⁻¹. In addition, the “EC50 of killing of CD40-FAS CHO cells (loss of MTT reduction)” value in test [11] is about 1 nM. In [3], the “EC50/EC50 CP, B cell proliferation” value is about 10 ratio and the “Δ w/sCD40L (fold): fold difference” value was about 0 fold. For the same molecule, the “IC50 (read off the curve)” value in test [9] is about 0.5 µg/mL. For the same molecule, in test [4], the “EC50 (read off the curve)” value was about 0.0003 nM. In addition, the “EC50 (read off the curve)” value in [5] was about 0.0002 nM. For the same molecule, in test [6], the “EC50 (nM) cytokines: 50% of maximum cytokine secretion by MDDCs” value was over 10 nM; the “EC50/EC50 CP, MDDC cytokine secretion” value was over 1000 ratio; the “EC50 w/sCD40L (nM): MDDC cytokine secretion with constant suboptimal soluble human CD40L” value was over 10 nM; the “Δ w/sCD40L (fold): MDDC cytokine secretion EC50” value is about 0 fold. The “EC50 (read off the curve)” value in test [7] was about 0.0003 nM. Further, in [8], the “EC50 (read off the curve)” value was about 0.0005 nM.

B5: anti-CD40 11B6 human IgG4 antibody (antibody, V domains shown)
VH: EVQLVQSGAEVKKPGASVKISCKASGYSFTGYYMHWVKQAHGQGLEWIGRINPYNGATSYNQNFKDRATLTVDKSTSTAYMELSSLRSEDTAVYYCAREDYVYWGQGTTVTVSS
VL: DVVMTQSPLSLPVTLGQPASISCRSSQSLVHSNGNTYLHWYQQRPGQSPRLLIYKVSNRFSGVPDRFSGSGSGTDFTLKISRVEAEDVGVYFCSQSTHVPWTFGGGTKLEIKR
notes: also called mAb1 [11B6 VH/VkV2]; PAB3405
In test [1], B5 gave a Kd of 217 nM, an off-rate constant (koff) of 0.064 s⁻¹ and a kon of 300000 M⁻¹ s⁻¹. For the same molecule, the “EC50 of killing of CD40-FAS CHO cells (loss of MTT reduction)” value in test [11] was about 2.5 nM. Besides, in test [3], the “EC50 (nM) B cell: dose for 50% of maximum B cell proliferation” value is at least 10 nM; the “EC50/EC50 CP, B cell proliferation” value was at least 100 ratio; the “EC50 w/sCD40L (nM): B cell proliferation with constant 6 nM soluble human CD40L” value was at least 0.1 nM; the “Δ w/sCD40L (fold): fold difference” value is at least 100 fold. Further, in [4], the concentration giving a half-maximal response (EC50 (read off the curve)) is about 0.0003 nM. Also, the “EC50 (read off the curve)” value in test [5] is about 0.0002 nM. Further, in [6], the “EC50 (nM) cytokines: 50% of maximum cytokine secretion by MDDCs” value was over 10 nM; the “EC50/EC50 CP, MDDC cytokine secretion” value was over 1000 ratio; the “EC50 w/sCD40L (nM): MDDC cytokine secretion with constant suboptimal soluble human CD40L” value is at least 0.1 nM; the “Δ w/sCD40L (fold): MDDC cytokine secretion EC50” value was over 1000 fold. Moreover, the “EC50 (read off the curve)” value in [7] is about 0.0002 nM. Further, the half-maximal effective concentration (EC50 (read off the curve)) in test [8] is about 0.0003 nM.
